Tests used:
[1] = target: CHO host cell proteins (HCPs); assay: static binding of CHO HCPs; summary
[2] = target: CHO host cell proteins (HCPs); assay: dynamic binding of CHO HCPs, residence time 1 min; summary
[3] = target: CHO host cell proteins (HCPs); assay: dynamic binding of CHO HCPs, residence time 2 min; summary
[4] = target: CHO host cell proteins (HCPs); assay: dynamic binding, CHO cell culture fluid; summary for G.1 and G.2 together
[5] = target: CHO host cell proteins (HCPs); assay: static binding, null CHO-S cell culture fluid; summary for G.1 and G.2 together
[6] = target: CHO host cell proteins (HCPs); assay: static binding on resin, competitive, CHO HCPs with 1 mg/mL NIST mAb
[7] = target: CHO host cell proteins (HCPs); assay: static binding on resin, competitive, CHO HCPs with 5 mg/mL NIST mAb
[8] = target: CHO host cell proteins (HCPs); assay: static binding on resin, Langmuir isotherm fit; non-competitive, null CHO-S harvest
NIST mAb [9] = assay: static binding on resin, Langmuir isotherm fit; non-competitive, pure NISTmAb solution
[10] = target: CHO host cell proteins (HCPs); assay: static binding on resin, Langmuir fit; competitive, CHO HCPs with 1 mg/mL NISTmAb; HCP ELISA
[11] = target: CHO host cell proteins (HCPs); assay: static binding on resin, Langmuir fit; competitive, CHO HCPs with 5 mg/mL NISTmAb; HCP ELISA
[12] = target: CHO host cell proteins (HCPs); assay: static binding on resin, Langmuir isotherm fit; non-competitive, null CHO-S harvest; average HCP MW of 40 kDa assumed
[13] = target: CHO host cell proteins (HCPs); assay: static binding on resin, Langmuir isotherm fit; non-competitive; average HCP MW of 40 kDa assumed (Table 1 prints 6.50)
NIST mAb [14] = assay: adsorption kinetics on resin (FIG. 8A), pure NIST mAb in PBS pH 7.4
[15] = target: CHO host cell proteins (HCPs); assay: static binding on resin, competitive against non-competitive conditions
[16] = target: CHO host cell proteins (HCPs); assay: adsorption kinetics on resin (FIG. 8A), null CHO-S harvest; average HCP MW of 40 kDa assumed
[17] = target: CHO host cell proteins (HCPs); assay: breakthrough curve, industrial CHO harvest (mAb 1.38 mg/mL, HCP 0.46 mg/mL), residence time 1 min
[18] = target: CHO host cell proteins (HCPs); assay: breakthrough curve, industrial CHO harvest (mAb 1.38 mg/mL, HCP 0.46 mg/mL), residence time 2 min
[19] = target: CHO host cell proteins (HCPs); assay: breakthrough curve, industrial CHO harvest (mAb 1.38 mg/mL, HCP 0.46 mg/mL), residence time 5 min
[20] = target: CHO host cell proteins (HCPs); assay: breakthrough curve, industrial CHO harvest (mAb 1.38 mg/mL, HCP 0.46 mg/mL), residence time 0.5 min
non-Ig plasma proteins [21] = assay: flow-through loading of diluted cryo-rich plasma, two-column process
non-Ig plasma proteins [22] = assay: flow-through loading of cryo-poor plasma diluted 10-fold, above 10 CVs

Substance	Qmax,HCPs [6]	Qmax,HCPs [7] [mg per mL]	Qmax (static binding capacity) [8] [mg/mL]	Kd (NIST mAb [9]) [µM]	Qmax (static binding capacity) (NIST mAb [9]) [mg/mL]	Kd [10] [µM]	Qmax (static binding capacity) [10] [mg/mL]	Kd [11] [µM]	Qmax (static binding capacity) [11] [mg/mL]	Kd [12] [µM]	further results
LigaGuard™											equilibrium capacity (mg per mL of resin) [1]: 30; 10% breakthrough capacity [2]: < 16 mg/mL; 10% breakthrough capacity [3]: < 22 mg/mL; DBC10% [4]: 16 to 22 mg/mL; Qmax (maximum binding capacity) (mg per mL of resin) [5]: 28 to 30
first generation (G.1) LigaGuard™ resin	13 mg/mL	10	21.8	14.2	11.5	8.75	18.8	8.75	15.6	6.5	Kd [13]: 6.75 µM
second generation (G.2) LigaGuard™ resin	18 mg per mL	16	24.5	28.3	10.5	4.25	23.1	4.75	22.4	3.25	kon (NIST mAb [14]): 8710 M⁻¹ s⁻¹; decrease of Qmax,HCPs on adding 1 mg/mL mAb [15]: 25%; kon [16]: 39000 M⁻¹ s⁻¹; DBC10% (dynamic binding capacity at 10% breakthrough) [17]: 16.7 mg/mL; DBC10% (dynamic binding capacity at 10% breakthrough) [18]: 16.2 mg/mL; DBC10% (dynamic binding capacity at 10% breakthrough) [19]: 17.6 mg per mL; DBC10% (dynamic binding capacity at 10% breakthrough) [20]: 14.3 mg/mL
second-generation LigaGuard™ adsorbent (plasma work, Examples 5 and 6)											binding capacity (mg per mL of resin) (non-Ig plasma proteins [21]): 32; QPP at saturation (non-Ig plasma proteins [22]): 30 mg/mL
